From article PMC10873203 come the findings set out here.

In this test the target is recombinant extracellular domain of human insulin receptor (human). Briefly: SDS-PAGE under non-reducing and reducing conditions (Coomassie); 0.5 µg ECD-IR in Laemmli buffer with or without 2.5% 2-mercaptoethanol, 80 °C 10 min.

As usually defined, the stoichiometry N is a count of units in the complex or per binding partner. As for “recombinant extracellular domain of human insulin receptor”, the stoichiometry N was found to be 2.
